Reference: patent US20250011363A1, “OPTIMIZED SHORTENED PEPTIDE THAT BINDS TO ACETYLCHOLINE RECEPTOR, AND USE THEREOF” (SKINMED CO., LTD., priority 2021, published 2025)

These binders were tested against acetylcholine receptor (assay: SPR, receptor immobilised on chip, peptide at 10 uM).
A Binding affinity (RU) of 41 RU was found for RNENKK [6mer-2-940] in this work. A Binding affinity (RU) of 29 RU was found for RDCVKR [6mer-2-960] in this work. A Binding affinity (RU) of 36 RU was found for KPWFKR [6mer-2-965] in this work. A Binding affinity (RU) of 41 RU was found for KTNWRK [6mer-2-947] in this work. A Binding affinity (RU) of 28 RU was found for KFCIRR [6mer-2-928] in this work. A Binding affinity (RU) of 33 RU was found for RCCAKK [6mer-2-923] in this work. A Binding affinity (RU) of 39 RU was found for RFNPRK [6mer-2-927] in this work. A Binding affinity (RU) of 26 RU was found for KNHMRK [6mer-2-929] in this work. A Binding affinity (RU) of 41 RU was found for KDNVRR [6mer-2-922] in this work. A Binding affinity (RU) of 23 RU was found for RASVKR [6mer-2-925] in this work. A Binding affinity (RU) of 35 RU was found for RIPWRR [6mer-2-932] in this work. A Binding affinity (RU) of 31 RU was found for RPTVKR [6mer-2-926] in this work. A Binding affinity (RU) of 28 RU was found for KFKARK [6mer-2-958] in this work. A Binding affinity (RU) of 33 RU was found for RDEDKR [6mer-2-941] in this work. A Binding affinity (RU) of 25 RU was found for KESVKK [6mer-2-953] in this work. A Binding affinity (RU) of 40 RU was found for RIEHKR [6mer-2-938] in this work. A Binding affinity (RU) of 34 RU was found for RYSMKR [6mer-2-933] in this work. A Binding affinity (RU) of 37 RU was found for KAKHRR [6mer-2-963] in this work. A Binding affinity (RU) of 26 RU was found for KYKDRR [6mer-2-934] in this work. A Binding affinity (RU) of 27 RU was found for KAKHKR [6mer-2-919] in this work. A Binding affinity (RU) of 22 RU was found for KKCARR [6mer-2-939] in this work. A Binding affinity (RU) of 35 RU was found for RTNARK [6mer-2-959] in this work. A Binding affinity (RU) of 22 RU was found for KTTEKR [6mer-2-916] in this work. A Binding affinity (RU) of 41 RU was found for KCEDRK [6mer-2-964] in this work. A Binding affinity (RU) of 22 RU was found for KTDKRK [6mer-2-942] in this work. A Binding affinity (RU) of 42 RU was found for KKCERK [6mer-2-945] in this work. A Binding affinity (RU) of 37 RU was found for RTWIKR [6mer-2-930] in this work. A Binding affinity (RU) of 26 RU was found for KYNKRR [6mer-2-950] in this work. A Binding affinity (RU) of 28 RU was found for RFDHKK [6mer-2-924] in this work. A Binding affinity (RU) of 42 RU was found for RADEKK [6mer-2-951] in this work. A Binding affinity (RU) of 29 RU was found for KNCWKR [6mer-2-915] in this work. A Binding affinity (RU) of 27 RU was found for RAPIRR [6mer-2-912] in this work. A Binding affinity (RU) of 29 RU was found for RYCFKR [6mer-2-931] in this work. A Binding affinity (RU) of 21 RU was found for KPPAKK [6mer-2-936] in this work. A Binding affinity (RU) of 29 RU was found for RMPERR [6mer-2-955] in this work. A Binding affinity (RU) of 22 RU was found for RPKAKK [6mer-2-921] in this work. A Binding affinity (RU) of 21 RU was found for KNTKKR [6mer-2-961] in this work. A Binding affinity (RU) of 35 RU was found for RTSNKK [6mer-2-967] in this work. A Binding affinity (RU) of 26 RU was found for RMTIKK [6mer-2-920] in this work. A Binding affinity (RU) of 28 RU was found for RPPFRR [6mer-2-948] in this work. A Binding affinity (RU) of 25 RU was found for KFKNRR [6mer-2-913] in this work. A Binding affinity (RU) of 41 RU was found for KIDHRR [6mer-2-943] in this work. A Binding affinity (RU) of 22 RU was found for KKCNKK [6mer-2-935] in this work. A Binding affinity (RU) of 28 RU was found for KFCWRR [6mer-2-956] in this work. A Binding affinity (RU) of 40 RU was found for RDTHRR [6mer-2-957] in this work. A Binding affinity (RU) of 39 RU was found for RPNARR [6mer-2-949] in this work. A Binding affinity (RU) of 30 RU was found for KKSNRK [6mer-2-962] in this work. A Binding affinity (RU) of 23 RU was found for RFCWRK [6mer-2-917] in this work. A Binding affinity (RU) of 24 RU was found for KYWGRR [6mer-2-952] in this work. A Binding affinity (RU) of 25 RU was found for KDDIKK [6mer-2-914] in this work. A Binding affinity (RU) of 35 RU was found for RASHRR [6mer-2-937] in this work. A Binding affinity (RU) of 32 RU was found for KCTIRK [6mer-2-954] in this work. A Binding affinity (RU) of 35 RU was found for KPEDKK [6mer-2-944] in this work. A Binding affinity (RU) of 35 RU was found for KNWMRK [6mer-2-918] in this work. A Binding affinity (RU) of 41 RU was found for KEDAKR [6mer-2-966] in this work. A Binding affinity (RU) of 21 RU was found for KPCEKK [6mer-2-946] in this work.
